Data reported in the DeepSol protein solubility set.

experiment: soluble on expression in E. coli; label from the status in PepcDB or PDB records

Soluble on expression in E. coli, soluble:
MDKAIIDIYYCRQCNWMLRSTWLSQELLHTFSEEIDTISLHPDTGGRFEIFCNGQQIWERKKDGGFPEAKVLKQRVRDIIDPERDLGHSDTKLEHHHHHH, GDALTSPQQTKLYLSSVLRDRQREAFYILFLDNQHRVIRDEILFEGTIDAASVYPREVVKRALHHNAAAVILAHNHPSGVAEPSQADRRITDRLRDALGLVEIRVLDHFVVGDGEVVSFAERGWI

Soluble on expression in E. coli, not soluble:
GPGSMVAKQSTAKGGSRYPPLTADQEKEVTELMELMRTKYDPLPQQLLALQRYNPQMEGTASEGAVAGTFFSPIRNYCYYFLISREWDRQKSFEMMQLSVSYREKNELDSRAELPSAICCRGWEQEKVRIALDKPARPTSQRLDRLSAGIEQYFTFGLHYWDKHGQPVVYLNLGSVDEPGLLKKLKQLANIGQTPNLVMWELVQHLIGVQEQLLFYQQMQYAAGTLKAEADDGLIRSATIVIDLNGLTYKMLWKPALDLFMNMLQTLFQYYPKCVHQILLVNSPPMVMFAYKIVRGALPHGVQRKVHIVNVADTPATMQSFIDAQYVPDYLGGLCHCEGGCVRGYDPHQRGTMKDSGTAKSDTRNVQSGDQDDEAGVVTEEITLKAGQELKRAFSLKRAESVVWEFVSANGRDVAFSTYFVPKKAAPSIDTSKLPTSMLESYVVSKASPSEGSDKYTASDDGIFVIVWDNKKSWFTAKYLQLNVFKQAATLTDGA, MSLPDKFKRVHVVVMDSVGIGEAPDAAKFGDFDVDTFGHIAKHVGGLKMPEMGKLGLSNIREIEGIKKAEKPLAYYTKMQEASNGKDTMTGHWEIMGLYIDTPFRVFPDGFPDDLINQIEEKTGRKVIGNKPASGTEIMAELGEEHVKTGALIVYTSADSVLQIAAHEDVVPLEELYEICEFCRKITLDDPYMLGRIIARPFVGEPGAFVRTPNRHDYALKPFKPTVMDALKDGGKDVIAIGKISDIFDGEGVTESIRTKSNMDGMDQFIAVLDKDFNGMSFLNLVDFDALFGHRRDPQGYADALVDFDGRLVEVMEKLTDDDLLIITADHGNDPTYTGTDHTREFVPLLVYSPRFKNGGSELELRKTFADLGATVADNFDVKMPEYGTSFLRDLKEGHHHHHH, MAGQISPTRSALLASKASLKTANGGADLLKRKRDALIGEFFALVKDALAAREQLSSVSKGAYTSLFGAKAWDSPEAVESLSLAGTGDYAVDMQIESIYGVKVPKINIPERAAQADFSPINVGARTIQASNDFGGVLEAIVKVAATETKLRRIGEEIKKTSRRVNALEQVVIPGIHDDIRFIRSVLDQREREAGYTQKKIKAKIEGKNKEAREAAAATSHGSAADAAALEHHHHHH, MAQITTTDANEFSSSAEFIPMRGFSNCHLQTMLPRLFRRQVKFTPYWQRLELPDGDFVDLAWSENPAQAQHKPRLVVFHGLEGSLNSPYAHGLVEAAQKRGWLGVVMHFRGCSGEPNRMHRIYHSGETEDASWFLRWLQREFGHAPTAAVGYSLGGNMLACLLAKEGNDLPVDAAVIVSAPFMLEACSYHMEKGFSRVYQRYLLNLLKANAARKLAAYPGTLPINLAQLKSVRRIREFDDLITARIHGYADAIDYYRQCSAMPMLNRIAKPTLIIHAKDDPFMDHQVIPKPESLPPQVEYQLTEHGGHVGFIGGTLLHPQMWLESRIPDWLTTYLEAKSCLEHHHHHH, MSLSVRFAGMATCVPKRVVSNLTDCKPQIRPERERLVRNIGIELRRLTQEWQCFSDLAFDAASKLIESLEWKLEEIDALIVVTQSPDYLAPATAIILQDRLGLPHTTLAFDVNLGCSGYPFGLHLLGSLISAGGIKKGLVLVGDSGAQLNDPIFSDAGTATAMEFCADAPPMYFDLNSDGSGHKAIILPVGGHREPVGIQHLVPFRENENDHWHRAIDLQLDGTAVLSFSTQRVPPAVEKLLEYANASKDEVDYFIFHQANRMINETIRKKLALPVEKVPSTLRDFGNTSGASLPVTMTARINKQLEEGSKRLVLSGFGIGLSWGTCLVDIQGAKFPDLIESEGHHHHHH, MGLQSLKEPVENSVQDEFSHFWSQHGEWVEEPNVRRGGESGVQRLVMDNGQTLYAKRQTGHIYRSLLHPLGRPTVLREREALEGLRKLGVVVPEVVFCGAERGEDNAWRALLVTVALDGFDEIEKWLAAGGRERHGELFYERMLKEVASTLARMHLGRWQHSCLYIKHVFVRVTGDGPDAKVEVALLDLEKGRRRLTAQGAAQHDMKQLRRHSSFSAADWQKLVYFYQTAFGSSIKGLES
